Reference: the RNAGym collection of RNA variant scans (doi:10.7554/elife.90254)

B1: OR4K15 (parent)
chain: GUUAACGGUCAUAGGCCAUGGAAACUAGGAGCACCAUUUCGCUGCCAGUGAAGAAAUGAACAAAGAAAAUCUGGGCCAGGCAGGCAUCAAAAGAAAUAGUCUUGCGCUCAACCAGAAAGUCUGUAAUCAUUUUAAGGGUA

Variants of: B1
Assay: self-cleavage, relative activity (ratio to wild type); higher = more cleavage; in vitro, sequencing; the parent is a self-cleaving ribozyme

Variant | self-cleavage
GUUAAUGGUCAUAGGCCAUGGAAACUAGGAGCACCAUUUCGCUGCCAGUGAAGAAAUGAACAAAGAAAAUCUGGGCCAGGCAGGCAUCAAAAGAAGUAGUCUUGCGCUCAACCAGAAAGUCUGUAAUCAUUUUAAGGGUA [C6U A96G] | 1.1
GUUAAUGGUCAUAGGCCAUGGAAACUAGGAGCACCAUUUCGCUGCCAGUGAAGAAAUGAACAAAGAAAAUCUGGGCCAGGCGGGCAUCAAAAGAAAUAGUCUUGCGCUCAACCAGAAAGUCUGUAAUCAUUUUAAGGGUA [C6U A82G] | 0.72
GUUAAUGGUCAUAGGCCAUGGAAACUAGGAGCACCAUUUCGCUGCCAGUGAAGAAAUGAACAAAGAAAAUCUGGGCCAGGCAGGCAUCAAAAGAAAUAGUCUUGCGCUCAACCAGAAAGUCCGUAAUCAUUUUAAGGGUA [C6U U122C] | 0.82
GUUAACAGUCAUAGGCCAUGGAAACUUGGAGCACCAUUUCGCUGCCAGUGAAGAAAUGAACAAAGAAAAUCUGGGCCAGGCAGGCAUCAAAAGAAAUAGUCUUGCGCUCAACCAGAAAGUCUGUAAUCAUUUUAAGGGUA [G7A A27U] | 0.85
GUUAACAGUCAUAGGCCAUGGAAACUAGGAGCACCAUUUCGCUGCCAGUGAAGAAAUGAACAAAGAAAAUCUGGGCCAGGCAGGCAUCAAAAGAAGUAGUCUUGCGCUCAACCAGAAAGUCUGUAAUCAUUUUAAGGGUA [G7A A96G] | 2.05
GUUAACAGUCAUAGGCCAUGGAAACUAGGAGCACCAUUUCGCUGCCAGUGAAGAAAUGAACAAAGAAAAUCUGGGCCAGGCAGGCAUCAAAAGAAUUAGUCUUGCGCUCAACCAGAAAGUCUGUAAUCAUUUUAAGGGUA [G7A A96U] | 1.83
GUUAAUGGUCAUAGGCCAUGGAAACUAGGAGCACCAUUUCGCUGCCAGCGAAGAAAUGAACAAAGAAAAUCUGGGCCAGGCAGGCAUCAAAAGAAAUAGUCUUGCGCUCAACCAGAAAGUCUGUAAUCAUUUUAAGGGUA [C6U U49C] | 0.83
GUUAAUGGUCAUAGGCCAUGGAAACUAGGAGCACCAUUUCGCUGCCAGUGAAGAAAUGAACGAAGAAAAUCUGGGCCAGGCAGGCAUCAAAAGAAAUAGUCUUGCGCUCAACCAGAAAGUCUGUAAUCAUUUUAAGGGUA [C6U A62G] | 0.56
GUUAACAGUCAUUGGCCAUGGAAACUAGGAGCACCAUUUCGCUGCCAGUGAAGAAAUGAACAAAGAAAAUCUGGGCCAGGCAGGCAUCAAAAGAAAUAGUCUUGCGCUCAACCAGAAAGUCUGUAAUCAUUUUAAGGGUA [G7A A13U] | 1.19
GUUAACAGUCAUAGGCCAUGGAAACUAGGAGCACCAUUUCGCUGCCAGUGAAGAAAUGAACAAAGAAAAUCUGGGCCAGGCAGGCAUCAAAAGAAAUAGUCUUGCGCUCAUCCAGAAAGUCUGUAAUCAUUUUAAGGGUA [G7A A111U] | 0.04
GUUAACAGUCAUAGGCCAUGGAAACUAGGAGCACCAUUUCGCUGCCAGUGAAGAAAUGAACAAAGAAAAUCUGGGCCAGGCAGGCAUCAUAAGAAAUAGUCUUGCGCUCAACCAGAAAGUCUGUAAUCAUUUUAAGGGUA [G7A A90U] | 2.31
GUUAAUGGUCAUAGGCCAUGGAAACUAGGAGCACCAUUUCGCUGCCAGUGAAGAAAUGAACAAAGAAAAUCUGGGCCAGGCAGGCAUCAAAAGAAAUAGUCUUGCGCUCAACCUGAAAGUCUGUAAUCAUUUUAAGGGUA [C6U A114U] | 0.07
GUUAACAGUCAUAGGCCAUGGAAACUAGGAGCACCAUUUCGCUGCCAGUGAAGAAAUGAGCAAAGAAAAUCUGGGCCAGGCAGGCAUCAAAAGAAAUAGUCUUGCGCUCAACCAGAAAGUCUGUAAUCAUUUUAAGGGUA [G7A A60G] | 2.29
GUUAACAGUCAUAGGCCAUGGAAACUAGGAGCACCAUUUCGCUGCCAGUGAAGAAAUGAACUAAGAAAAUCUGGGCCAGGCAGGCAUCAAAAGAAAUAGUCUUGCGCUCAACCAGAAAGUCUGUAAUCAUUUUAAGGGUA [G7A A62U] | 1.38
GUUAAUGGUCAUAGGCCAUGGAAACUAGGAGCACCAUUUCGCUGCCAGUGAAGAAAUGAACAAAGAAAAUCUGGGCCAGGCAGGCAUCAAAAGAAAUAGUCUUGCGCUCAACCAGAAAGUCUGUAAUCAUCUUAAGGGUA [C6U U131C] | 0.08
GUUAACAGUCAUAGGCCAUGGAAACUAGGAGCACCAUUUCGCUGCCAGUGAAGAAAUGAACAAAGAAAAUCUGGGCCUGGCAGGCAUCAAAAGAAAUAGUCUUGCGCUCAACCAGAAAGUCUGUAAUCAUUUUAAGGGUA [G7A A78U] | 0.33
GUUAAUGGUCAUAGGCCAUGGAAACUAGGAGCACCAUUUCGCUGACAGUGAAGAAAUGAACAAAGAAAAUCUGGGCCAGGCAGGCAUCAAAAGAAAUAGUCUUGCGCUCAACCAGAAAGUCUGUAAUCAUUUUAAGGGUA [C6U C45A] | 1.31
GUUAACAGUCAUAGGCCAUGGAAACUAGGAGCACCAUUUCGCUGCCAGUGAAGAAAUGAACAAAGAGAAUCUGGGCCAGGCAGGCAUCAAAAGAAAUAGUCUUGCGCUCAACCAGAAAGUCUGUAAUCAUUUUAAGGGUA [G7A A67G] | 1.61
GUUAAUGGUCAUAGGCCAUGGAAACUAGGAGCACCAUUUCGCUGCCAGUGAAGAAAUGAGCAAAGAAAAUCUGGGCCAGGCAGGCAUCAAAAGAAAUAGUCUUGCGCUCAACCAGAAAGUCUGUAAUCAUUUUAAGGGUA [C6U A60G] | 0.8
GUUAAUGGUCAUAGGCCAUGGAAACUAGGAGCACCACUUCGCUGCCAGUGAAGAAAUGAACAAAGAAAAUCUGGGCCAGGCAGGCAUCAAAAGAAAUAGUCUUGCGCUCAACCAGAAAGUCUGUAAUCAUUUUAAGGGUA [C6U U37C] | 1.08
GUUAACAGUCAUAGGCCAUGGAAACUAGGAGCACCAUUUCGCUGCCAGUGAAGAAAUGAACAGAGAAAAUCUGGGCCAGGCAGGCAUCAAAAGAAAUAGUCUUGCGCUCAACCAGAAAGUCUGUAAUCAUUUUAAGGGUA [G7A A63G] | 1.86
